System: MS2 coat protein
Test: apparent KD of MS2 coat protein; designed switch direction (-1 OFF switch, 1 ON switch): -1; higher = weaker reporter binding
In short: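 Designed RNA switches with common flanks were made on Illumina chips by stalled E. coli RNA polymerase. Titration with SNAP-549-labelled MS2 coat protein doubled from 0.7 or 1.5 nM up to 3 µM. Apparent KD is each design's median over clusters after curve-fitting normalised fluorescence.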

[1] = input ligand: microRNA oligo, concentration not stated
[2] = Eterna round: R95, input ligand: FMN 200 uM
[3] = Eterna round: R95, input ligand: microRNA oligo, concentration not stated
[4] = Eterna round: R95, input ligand: none

AGUAACCGUCACGAAAGUGAUGGUUACACAAGCAAAUGUACAUGAGGAUCACCCAUGUCCUCAUUUGUUCGUCUUAU [Sensor 3 - 47] (Eterna round: R96, puzzle: Sensor v3, turn-off variant 2)
apparent KD of MS2 coat protein (input ligand: FMN 200 uM): 101 nM
apparent KD of MS2 coat protein [1]: 305 nM
apparent KD of MS2 coat protein (input ligand: none): 104 nM

AGUAACCGUCACGAAAGUGAUGGUUACACAAGCAAAUGUACAUGAGGAUCACCCAUGUCCUCAUUUGUUCGUCUUAU [Sensor 3 - 47] (puzzle: Sensor v3, turn-off variant 2)
apparent KD of MS2 coat protein [2]: 83.5 nM
apparent KD of MS2 coat protein [3]: 390 nM
apparent KD of MS2 coat protein [4]: 87.5 nM

AGUAACCGUCACGAAAGUGAUGGUUACACAAGCAAAUGUACAUGAGGAUCACCCAUGUCCUCGUUUGCUCGUCUUAU [Sensor 3 - 49] (puzzle: Sensor v3, turn-off variant 2)
apparent KD of MS2 coat protein [2]: 26.9 nM
apparent KD of MS2 coat protein [3]: 96.7 nM
apparent KD of MS2 coat protein [4]: 31.2 nM

AGUAAGCUAGGAUAUGCUUAGGGAAAGCCUUCCUUCCACAAACUUGAGGAUCACCCAAGUAGAAGGAGCUAAAU [jl-ex2.4.46 ViennaUCT mod] (Eterna round: R97, puzzle: Exclusion 2)
apparent KD of MS2 coat protein (input ligand: FMN 200 uM): 15.4 nM
apparent KD of MS2 coat protein (input ligand: none): 13.5 nM

AGUAAUUCAAGAGGAUAUCACAUGAGGAUCACCCAUGUAUAGCGCGCUACGCUAGUCCUCGUAUUUGAGAAGGUUUGAUAAAAG [Mat - Exclusion NG 2 - Mod of JL - D76] (Eterna round: R96, puzzle: Exclusion NG 2)
apparent KD of MS2 coat protein (input ligand: FMN 200 uM): 18.7 nM
apparent KD of MS2 coat protein [1]: 13.4 nM
apparent KD of MS2 coat protein (input ligand: none): 17.5 nM

AGUAAUUCAAGAGGAUAUCACAUGAGGAUCACCCAUGUAUAGCGCGCUACGCUAGUCCUCGUAUUUGAGAAGGUUUGAUAAAUG [JL ViennaUCT Quve mod 1] (Eterna round: R96, puzzle: Exclusion NG 2)
apparent KD of MS2 coat protein (input ligand: FMN 200 uM): 14.4 nM
apparent KD of MS2 coat protein [1]: 12.5 nM
apparent KD of MS2 coat protein (input ligand: none): 17.1 nM

AGUACAUUCACGAAAGUGAAUGUACAAUAAGCUUGUGGAACAUGAGGAUCACCCAUGUCCUCAUAAGCUCGUCUUAU [Mat - Sensor v3 - Turn-off var 2 - D31] (puzzle: Sensor v3, turn-off variant 2)
apparent KD of MS2 coat protein [2]: 16.1 nM
apparent KD of MS2 coat protein [3]: 68.7 nM
apparent KD of MS2 coat protein [4]: 14.6 nM

AGUACCUGAGUACAAUGUAACAUGAGGAUCACCCAUGUAAUUGGGUGAGAACAAGCUCACCGUUCGUCUUAAAUAAA [JL turnoff v1 80] (Eterna round: R96, puzzle: Sensor v2, turn-off variant)
apparent KD of MS2 coat protein (input ligand: FMN 200 uM): 485 nM
apparent KD of MS2 coat protein [1]: 55.3 nM
apparent KD of MS2 coat protein (input ligand: none): 501 nM

AGUACUAACACGAAAGUGUUAGUACAAUAAGCUUGUGGAACAUGAGGAUCACCCAUGUCCUCAUAAGCUCGUCUUAU [JL-sv3-2.12 mat747 mod] (puzzle: Sensor v3, turn-off variant 2)
apparent KD of MS2 coat protein [2]: 16.8 nM
apparent KD of MS2 coat protein [3]: 71.4 nM
apparent KD of MS2 coat protein [4]: 16.9 nM

AGUACUAACACGAAAGUGUUAGUACUAUAAGCUUGUGUUACAUGAGGAUCACCCAUGUCCUCAUAAGCUCGUCUUAU [JL-sv3-2.15 mat747 mod] (puzzle: Sensor v3, turn-off variant 2)
apparent KD of MS2 coat protein [2]: 86.4 nM
apparent KD of MS2 coat protein [3]: 31.8 nM
apparent KD of MS2 coat protein [4]: 115 nM

AGUACUAACACGAAAGUGUUAGUGCAAUAAGCUUGUGAAACAUGAGGAUCACCCAUGUCCUCAUAAGCUCGUCUUAU [salish99_TOv2_r3_039] (puzzle: Sensor v3, turn-off variant 2)
apparent KD of MS2 coat protein [2]: 15.6 nM
apparent KD of MS2 coat protein [3]: 582 nM
apparent KD of MS2 coat protein [4]: 16.2 nM

AGUACUAACACGAAAGUGUUCGUACAAUAAGCUUGUGAAACAUGAGGAUCACCCAUGUCCUCAUAAGCUCGUCUUAU [salish99_TOv2_r3_037] (puzzle: Sensor v3, turn-off variant 2)
apparent KD of MS2 coat protein [2]: 16.6 nM
apparent KD of MS2 coat protein [3]: 810 nM
apparent KD of MS2 coat protein [4]: 15.6 nM

Source: the supplement of paper PMC9170038
